Reference: patent publication US20120114652A1 (AbbVie / Abbott, published 2012)

Columns and labels:
[1] = molecular target: T1, dog PAI-1 (bacterially-derived active dog PAI-1) (dog); assay: IgG competition ELISA (DELFIA) against biotinylated human PAI-1, one-site binding analysis; column Dog
T1 construct: also called canine PAI-1

[2] = molecular target: T2, rat PAI-1 (rat, UniProt P20961 24-402); assay: cell-based or functional assay
T2 sequence: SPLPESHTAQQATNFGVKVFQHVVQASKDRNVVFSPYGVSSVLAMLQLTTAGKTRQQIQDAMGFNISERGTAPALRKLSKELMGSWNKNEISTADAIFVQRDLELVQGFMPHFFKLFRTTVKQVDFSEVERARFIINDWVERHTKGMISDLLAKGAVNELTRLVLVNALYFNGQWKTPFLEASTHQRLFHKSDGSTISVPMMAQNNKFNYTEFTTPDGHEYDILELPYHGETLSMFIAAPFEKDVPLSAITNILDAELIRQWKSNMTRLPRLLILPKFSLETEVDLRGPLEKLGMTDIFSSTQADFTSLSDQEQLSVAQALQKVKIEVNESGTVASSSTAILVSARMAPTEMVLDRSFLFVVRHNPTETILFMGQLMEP

[3] = molecular target: cynomolgus PAI-1 (cynomolgus, UniProt P05121 24-402 (human entry), limits assumed); assay: cell-based or functional assay
[4] = molecular target: human PAI-1, active, wild-type, non-glycosylated (E. coli-derived) (human, UniProt P05121 24-402); assay: cell-based or functional assay
[5] = molecular target: T3, α1-antichymotrypsin (UniProt P01011 24-423); assay: competition ELISA (DELFIA): PICK167_A01 IgG1 coated on the plate, biotinylated human PAI-1, titration of the unlabelled test antigen
T3 sequence (looked up): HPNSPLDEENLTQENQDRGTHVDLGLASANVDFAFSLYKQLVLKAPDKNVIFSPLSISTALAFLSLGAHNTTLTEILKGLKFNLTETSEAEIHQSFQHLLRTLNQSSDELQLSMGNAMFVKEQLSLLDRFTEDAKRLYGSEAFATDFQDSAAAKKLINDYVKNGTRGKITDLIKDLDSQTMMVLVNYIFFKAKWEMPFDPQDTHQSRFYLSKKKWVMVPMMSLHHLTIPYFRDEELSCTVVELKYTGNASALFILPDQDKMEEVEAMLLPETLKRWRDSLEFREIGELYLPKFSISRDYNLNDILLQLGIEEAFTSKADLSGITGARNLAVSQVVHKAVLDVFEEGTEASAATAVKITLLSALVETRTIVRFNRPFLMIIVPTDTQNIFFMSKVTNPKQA

[6] = molecular target: PAI-2 (UniProt P05120 1-415, limits assumed); assay: as above
[7] = molecular target: T4, α1-antitrypsin (UniProt P01009 25-418); assay: as above
T4 construct: also called alpha-1-antitrypsin

[8] = molecular target: T5, mouse PAI-1 (mouse, UniProt P22777 24-401); assay: IgG competition ELISA (DELFIA) against biotinylated human PAI-1, one-site binding analysis; column Mouse
T5 construct: bought (US Biological); also called murine PAI-1
T5 sequence: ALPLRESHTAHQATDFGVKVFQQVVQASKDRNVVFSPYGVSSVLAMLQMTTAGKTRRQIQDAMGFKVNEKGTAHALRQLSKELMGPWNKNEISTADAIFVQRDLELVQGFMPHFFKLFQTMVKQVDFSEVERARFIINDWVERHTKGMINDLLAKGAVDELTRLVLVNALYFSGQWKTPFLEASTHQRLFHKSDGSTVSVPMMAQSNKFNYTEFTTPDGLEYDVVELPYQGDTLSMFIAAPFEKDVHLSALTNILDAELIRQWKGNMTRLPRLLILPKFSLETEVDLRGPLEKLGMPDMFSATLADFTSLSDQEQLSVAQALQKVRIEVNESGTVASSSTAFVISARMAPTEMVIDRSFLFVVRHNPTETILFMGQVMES

[9] = molecular target: T6, latent human PAI-1 (human, UniProt P05121 24-402); assay: IgG competition ELISA (DELFIA) against biotinylated human PAI-1, one-site binding analysis; column Human latent
T6 construct: also called latent PAI-1

[10] = molecular target: T7, glycosylated active human PAI-1 produced by CHO cells (human, UniProt P05121 24-402, N-glycosylated (CHO-produced)); assay: IgG competition ELISA (DELFIA) against biotinylated human PAI-1, one-site binding analysis; column Human glycosylated
T7 construct: also called hu glyco; human glycosylated PAI-1

[11] = molecular target: T6, latent human PAI-1; assay: IgG competition ELISA (DELFIA), one-site binding analysis
[12] = molecular target: T8, rabbit PAI-1 (rabbit); assay: IgG competition ELISA (DELFIA) against biotinylated human PAI-1, one-site binding analysis; column Rabbit
T8 chain: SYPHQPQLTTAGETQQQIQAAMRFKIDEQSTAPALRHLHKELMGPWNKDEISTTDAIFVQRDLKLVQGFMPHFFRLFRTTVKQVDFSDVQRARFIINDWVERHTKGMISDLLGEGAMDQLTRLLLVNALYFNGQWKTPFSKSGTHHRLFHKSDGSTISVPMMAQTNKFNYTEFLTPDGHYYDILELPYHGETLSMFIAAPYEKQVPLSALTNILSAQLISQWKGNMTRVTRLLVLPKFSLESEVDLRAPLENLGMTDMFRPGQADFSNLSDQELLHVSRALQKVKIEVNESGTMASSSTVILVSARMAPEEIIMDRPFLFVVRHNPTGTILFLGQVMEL

B1: PICK167_A01 IgG1 (antibody, V domains shown)
VH: QVQLQQSGAEVKKPGSSVKVSCKASGGTFSSYAISWVRQAPGQRLEWMGGIIPTFGTANYAQKFQGRVTITADESTSTAYMELSGLRSEDTAVYYCARERRQWLEGHFDYWGRGTPVTVSS
VL: DIQMTQSPSFLSASIGDRVTITCRASEGIYHNLAWYQQKPGKAPKLLIYKASSLASGAPSRFSGSRSGTDFTLTISSLQPDDFATYYCQQYSNYPLTFGGGTKLEIKR
fold difference in observed binding KD compared to human wild-type active [1]: 2.7 fold | IC50, PAI-1:tPA functional assay [2]: 1.97 nM | IC50, PAI-1:tPA functional assay [3]: 0.8 nM | IC50, PAI-1:tPA functional assay [4]: 1.34 nM | binding result [5]: no binding (tested: log M about -6.3 (about 5e-7 M)) | binding result [6]: no binding (tested: log M about -6.3 (about 5e-7 M)) | binding result [7]: no binding (tested: log M about -6.3 (about 5e-7 M)) | fold difference in observed binding KD compared to human wild-type active [8]: 47 fold | fold difference in observed binding KD compared to human wild-type active [9]: 8.5 fold | fold difference in observed binding KD compared to human wild-type active [10]: 1.2 fold | fold loss of binding affinity against wild-type active PAI-1 [11]: 10 fold | fold difference in observed binding KD compared to human wild-type active [12]: 41.5 fold
